Source: PMC7801428 (Nature Communications, 2021)

Target: SARS-CoV-2 RBD (residues V320 to G550, strain Wuhan-Hu-1), C-terminal His tag (SARS-CoV-2, UniProt P0DTC2)
Assay: BLI
Settings: both partners purified

B1: human-mouse chimeric antibody 3C1 (c3C1) (antibody, V domains shown)
VH: EVQLQESGPSLVKPSQTLSLTCSVTGDSITNGYWNWIRKFPGNKLEYMGYISYSGSTYYSPSLKSRISITRDTSKNQHYLQLNSVTSEDTATYYCASDYHGSKYYFDYWGQGTTLTVSS
VL: DIVMTQSHKFMSTSVGHRVSITCKASQDVGNDVAWYQQKPGQSPKLLIYWASTRHTGVPDRFTGSGSGTDFTLTISNVQSEDLADYFCQQYNRYPYTFGGGTKLEIK
notes: also called chimeric MAb c3C1
In the case of B1, the Kd is reported as less than 1 pM.
